{"source": "the DeepSol protein solubility set"}
{"assay": "soluble on expression in E. coli; label from the status in PepcDB or PDB records"}
{"sequence": "MGRIIILDENTANQIAAGEVVERPASVVKELVENSIDAGSTNISVEINNGGISFIKVVDNGSGIEEDDIEIAFERHATSKIRRASDLEAITSLGFRGEALASIASVSTVEVTSRPAHREYGRYVKIQGGTVLESGQVGCPAGTTFIVRDLFYNTPARFKFLKKDSTEAGYVSDIVSRIALGNPDISFRLINNKNTVIHTPGNNDLLSTIYSLYGKETAKECMEISYEDETVKITGYAGSPEIARANRNYQSIYLNKRYIKNKVISSAIDEAYKTYLMKNKFAFIVLYIELNPLLVDVNVHPTKMEVRFSREQEIFRAVYHAVNNALLSKTHIRNVSLKDSPKNYFKFEQSSKKEADYVQQRLDTDRKFSGYNYDEDFKTEKTNTSKSTWENLIVKESANINKRKDETIDEVINKNEVGDKNKVISEDEVINKDEVINKDKVINKDKVINKGEVVNKVNVNEVENESVDNLINGQISGLVNWAINEPINKTNDKLIEKSDGTALKGTGEECYNFDKSGYDNILKDVSDKPKDNRNDVDNNADTNFEKIRDGKDTRPQQDIERNVFLDARIIGQVFSTYILLQNEDDLIIIDQHAAHERIRFEELKEKYARNESLAQYLLTPVVIELTNQEIVFLEEEKELFNKLGFIFESFGNNSIILRSVPIPDEGVGVKEAFLEVVDFLMSKGRKYDKIIEEDALYQIACKSAVKANKKLDEIEIKAILDKLNMLQNPYTCPHGRPTVVKITKYEFEKMFKRIV", "soluble on expression in E. coli": "not soluble"}
{"sequence": "MGRIISSYIFPHPPLIVPEIGKGDEKGAIKTIEACEKAAEQIRKEKPSTIILTTSHAPLFEDYIFINDHKTLKGNFSRFGARKVELGFENNLKMVESIIEFAKKEGFDAGGISEGIGRRYGISGELDHGALVPLYYISRVYSDFKLVHVAMSTLTLEEHYKFGMCIGEAVRNSDEDVVFVASGDLAHRLTSDGPYGYNKHAPEFDELLVKSIEKDDIDRILDIDDKLRDEAAECGLRSFVIMLGALDGYSVVPEVYSYEGPFGVGYMVARIGVGAMDSSRRIIENRRNKRKKSTDPYVSLAKRALEAYVTEGRVLDDYSGLPEEMLNSRAGTFVSIKKKGELRGCIGTIGPTRKNIASEIVHNAISAGTSDPRFYPVKPYELDELEYSVDVLMEPEEINSMDELDVVKYGVIVRAGRRTGLLLPNLENVNTVEQQVSIALQKAGISPNEKYTMERFEVIRHK", "soluble on expression in E. coli": "not soluble"}
{"sequence": "MGRIKQMTPNVMRLLKACFVEQIPDEVCDEFHLKKDTEHMILITKDGGMPISKIKPLSDSQVLSVLSQILLSLYIGKRELQFSHNDLNPGNLLISETKKKSISYKKDGKSIKIKSHGRFLTLIDLQKSTFDEKEDKGLDCWKLNSRVRDQFLPLVKEDTKKILAKVAEEIEKTTILDWKLPGMLPIQ", "soluble on expression in E. coli": "not soluble"}
{"sequence": "MGRSNKHDVTSTTPSLAIVQANPHPHKDVVPTEAPIVSSYNDHIRPLLDTVDKLRNLNVMQEGIQLPTIVVVGDQSSGKSSVLESLAGISLPRGQGICTRVPLVMRLQRSRSPEPEIWLEYGDKIVPTDEEHIAQTICAATDVIAGSGKGVSDTPLTLHVKKAGVPDITMVDLPGITRVPVNGQPENIYEQISRMVMKYIEPQESIILNVLSATVDFTTCESIRMSKQVDKTGERTLAVVTKADMAPEGLLQKVTADDVSIGLGYVCVRNRIGEETYEEARMQEELLFRTHPMLSMINDEIVGIPVLAQKLTQIQGMMISRCLPEIERKINVKMEISVLEFNKLPIVMASTGEALMSLMDIIGSAKESLLRILVHGDFSEYPNDQKMHCTARLAEMLNRFSDNLQAQPQAVTEEFLMDEIKVLEERKCIGLPNFIPRSSFLAILSQHVDGIQDKPVEFIKEIWDYIEVVLSSVITTYSDNFPQIQSSIKRAGRNLMSRTKERSKTTSQQNFINSVLHDENKPENFALPGFGDVKISHLRKYHAHLLQQAFDMKMRITSYWTIVLRRVVDNLALYLQFSVKNLVNSQFQKEIVAEMVDPRAGGGIDRMLEESPSVASKREKLKNSLKLLKESKDVVAAIVDQNSVYADR", "soluble on expression in E. coli": "soluble"}
{"sequence": "MGSAEQACGCKGARFCALCETTERVKKLRVVEDKHVNYKVFIYDHIRQIAIPTTNLNSQSSLEDIIDESTSCQSVSTDGSIEIDGLTLIHNFLSESEESKILNMIDTVEWAQSQSGRRKQDYGPKVNFKHKKVKTDTFVGMPEYADMLLNKMSEYDVKKLGNYQPFEMCNLEYEEVKKSAIEMHQDDMWIWGNRLIRYEFLFKKVLFN", "soluble on expression in E. coli": "soluble"}
{"sequence": "MGSDKIHHHHHHAACQGKPLPNTAMHSDAPTEWSFNFFTPKALPAVVTFAAILDVDGNDYRFNTLNSTPDLPGVIGEWNDKDRAPVGYWNHVKRPPRHIIFCWDSIIDKKVYETHLTIPKSVLEQMLMPSKYKDYRGRIAWYNRMQIGLAPEGKVAVWLQGSGSESNYRVTPSVLKTVSGNKLDICKDITRSDFSYGYDKDIIDFIKGKHYPYGNW", "soluble on expression in E. coli": "not soluble"}
{"sequence": "MGSDKIHHHHHHAADRPTQPVRTEVYRLERLDSVLLVDLAVDLTGVHLAPDCTVYLFPLLASENTGDSLSLPPIVLNGPQSDLMYRRRRALGTTSGLEKITPYTVLREGDHALPRIHYRTEVPYAAWMDDVKVWMRDTNCNCDARLVPFAMHTEHIPPLVVERVDTIVIHDTIRLASVASGQSTVASDIPLRKKVTRIQAGYEADIYFPTNEMRILPDHELNRASWMHFVNQVDSIEQDNRNSISGVTVTGYSSPEGYTSNNERLAEKRAKALQAFLENKYGERMEVAVEWVGEDWKQFEKDIEVSDLPERNEILSILRTVSDSNQRKSRLKALNKGKTFGILLREYFPKLRRVSCRIRYVK", "soluble on expression in E. coli": "not soluble"}
{"sequence": "MGSDKIHHHHHHAALSTNTVAVEKAPDMVAVMGGEPEVMLDKALEALGGIGNFVKKGQKIVIKPNIGWDRSPELAGNTNPKLVKALVKKCLEAGASKVTVFDHTCDNWQKCYETSGIAEAVKEAGGIIMPANDEKYFKEVSIPGGVNLKSAKIHEALIEADAWINVPVLKNHGGAKMTCAMKNYMGIVWDRRFFHQNDLQQCIADICTWQKKPVLNIVDAYRIMHQNGPQGKSAADVATLKSLIASPNIVAIDTAALRLFNQVKKLDMAAVGHIGKGEALKLGTTNLDNVTIKRIKI", "soluble on expression in E. coli": "not soluble"}
{"sequence": "MGSDKIHHHHHHACSISYKFNGSSIDYTKVKTISFENFPNRSAGFVWGPMENMFNTALQDIYMQQTRLKQVKRSGDLQLSGEITNYEAFNKGIGSDGYSSMVELRMTVRVNFVNSSNPTENMNGQQFSASREYNSNQQLSAVQDELVNQMIKEIVEQIFNATVANW", "soluble on expression in E. coli": "not soluble"}
{"sequence": "MGSDKIHHHHHHAETVVVRFGLFAESIPVADLQKAAETGEFPSSLNLFTRRLSEQQRRTLIGALRMRVPLNVVTISRLLNTQIGTTILNDLSRAVVRKDQSGAKALRASLVLGSTAPQGLSILSFITAYPSRSLEINLPQAFQVAGSLNNAFWRTQQFMLAISPQLDPAKPQISIPFDPSQPGNAQVQVLKLNLNDQKRNRQIPADIYWSTSATQEKPVIIYSHGMGSVRTDLHYLAEHLASHGYIFVALEHPGSNQANTDLATKGKVRLLEPQEFLNRPQDVSFVLDVLEKLNQTTGNPLQGKLATNNTMVIGYSFGGGTALSLAGAELQIAGIRERCQNKLTILSLGETIQCVAQELPEKTYQLRDNRIKQAIALTPTTSLMFGETGLTKVQIPTLIVAASADKTTPALTEQILGFSKIPSPKWLVGIIGGTHLSVKDPSTTLDQVDKPNTPLTGGEIVGEQATDVRQFVKAIALAMVAQLTPEAEKYAVFLTPDYAQLASTESFPFRIVTEIPPQAIPIGKQ", "soluble on expression in E. coli": "not soluble"}
{"sequence": "MGSDKIHHHHHHAGFGVAGLSEKTYKTVLNTNMGALYSPSLSAQVVDGACYLINYELDLNSPENANAATNGYLTATISVADEITKGQPVFYNVPDSASLLQNEIPVKNLFSNGDYGVYVDGYLFFFITMDMFKDQKNSYTLYWDRSKEPTMVDNVPTYDLFLRVAKVADGTGSAASSIGEVRAFNVKSVLESVNSAEANKDSKSFNLKVNYLNTINEKDSTDLKWASYTVLFQVVKNS", "soluble on expression in E. coli": "not soluble"}
{"sequence": "MGSDKIHHHHHHAIVSAKWERTSSLQGIQLKQASIEGLFGGKQSISILTIGRAEGYTAFIATTDSLTTTSQLAEQSRSSAAINGSYFSIKEGFSTCYLRKNEAVIDTTTTEERHLRVNGAVHMVDNNIRIIPWNDENEKKGFPLDGDILASGPLLMQDGKTCDFTTIDREFSETRHPRSAIALTKEGDIMLVAVDGRAEGHADGMSIAELAYLLRILKAHCALNLDGGGSTTLWVNGQVVNHPSDNKKFDNKGERKVHNIIAVRRLTNP", "soluble on expression in E. coli": "not soluble"}
{"sequence": "MGSDKIHHHHHHANDETIEINYGESISLSAVAGKTTRTGSEATTTNSIRNFHVLAFTQGATYMDCDVRKQGNVWSYGDTKFWPETDVDFYSYSPMNTQNGNVSIKVEGDKKIANYNVPGDEDLLYALNQAEKKNEHEGERPVMVNFRHALSQIVFRIRNTSSNLTVFVDAVKVEGIEKQGTFFWPTLSTTTQWQGTEKDTETDNSWGRWNIVYNKENAKQNNYAAEIIPIMEQGFVGSIDASVRDLTVKTDNGYKGLLLLPQTLNPWITKTGGTDENPEYKITGTARVLVKCKLVDTVSNVQLWPNTNSHEETTWVGVSLVGEPKDINGKTEQVWKQGKRYVYTLIFGEGGGFNPDPDPENPDPEPVLVPITFAVTVDDFVEYPQDLDASVPNSNSGQ", "soluble on expression in E. coli": "not soluble"}
{"sequence": "MGSDKIHHHHHHAQESLFLKDPSTKNKLLQLDLDVGTCFDLAYRGKGNMYTAMSDRKSVFPAINLRLQHFFSRKWGWYTNIRLGIPVKYRRDCYTELVHAVEADYYVNNLIPGTQKPDVNPCLDFGVAYRFENSHWAFYPRLGIGVNSISYQRVCAELKKKGGNELYKIEYRGDDESNYGSESIDAFILSAGITANYKLSRNCFLLLNVNYIQPLGRFTYRKYVTDLYTGEKVERGVYKSSTFARDLNVSVGFGFPFYLGRKTNRKSSHRERTRQLMEQKRKTYGLFPGNK", "soluble on expression in E. coli": "not soluble"}
{"sequence": "MGSDKIHHHHHHAQQPVELPLWPDGAPNSNGLTGGEKEVSPHRLSNVTAPTITVYRAPQPNGMAVIMCPGGGYSRLAMDHEGHDMASWFCGQGITYVVLKYRMPNGHCEVPLSDAERAIRIVREHAGEWNIHPRKIGIMGASAGGHLASTLATHYSAASRPDFQILLYPVVTMTQSTHGGSRKELLGGNPTAEQEVLFSNELQVTSDTPQAFIVLSSDDGAVPPSNGVNYYLALQKNNVPASLHVYPTGGHGWGFRDNFKYKQQWTQELEKWLREGVVFPKETAPMLRIGKTYLGTKYVANTLDQGTEEKLVILPQTVDCLTFVEYTLAQAMGSSFADNLQKIRYRDGVIDGYTSRLHYTSDWIENGVRQGFLEDVTAQNSTQTTKLSLSYMSTHPQKYRQLADSPENVKRMAEHEKALSGKKVHWLPKGKLPDAGLPWIMDGDIIAITTNLPGLDVAHVGMAEYINGKLHLLHASSTLGKVVVSEEPLSQMLRNNKSWSGIRVVRMSHP", "soluble on expression in E. coli": "not soluble"}
{"sequence": "MGSDKIHHHHHHAQQQELPVPKPHQLKWHEAEMGAVFHYDLHVFDGIRYGQGNNRINPIEDYNIFNPTELNTDQWVQAAKAAGCKFAVLTATHETGFGLWQSDVNPYCLKAVKWRDGKGDIVRDFVNSCRKYGLQPGIYIGIRWNSLLGIHNFKAEGEGAFARNRQAWYKRLCEKMVTELCTRYGDLYMIWFDGGADDPRADGPDVEPIVNKYQPNCLFYHNIDRADFRWGGSETGTVEYPCWSTFPVPCSHHKRIESSIDQLELLKHGDKNGRYWVPAMADTPLRGANGRHEWFWEPDDENNIYPLNTLMDKYEKSVGRNATLILGLTPDPTGLIPAGDAQRLKEMGDEINRRFSSPIARISGQKKSLTLKLGKEQSVNYCIIQENIKNGERIRQYQIEAKVNGKWQTVCKGESVGHKRIEKFEPVEATALRLTVSESIALPDIINFSAYSVK", "soluble on expression in E. coli": "not soluble"}
{"sequence": "MGSDKIHHHHHHAQTLPFRLSKGAGTFRLGVVCGNESCWLDQCSVKKKGQAYTIKDKLWKEGEIKLIVCPLTDSNGFIMEVSGERLPEEFKLCWAFGACDGADDSAVTDNSIPVASCFHNVFSIEGNAFTTYYGESMKLRTVHGVSPIGSEIRLSDGHKQASPLALFNSGKKTDAPVISALCPWKPQEKLYFCFYQRGDYNYFMLPGLFGKEHKTRSK", "soluble on expression in E. coli": "not soluble"}
